Results reported in patent US20240270846A1 (published 2024).
Numbering of substitutions follows the chain as printed. In names and notes the source's numbering stands.

B1: GLS3000 P95L one-arm antibody (antibody, human IgG1, kappa, L234A L235A, N297A, name in Kabat numbering)
light: DIVMTQSPLSLPVTPGEPASISCRSSQSLVHSNRNTYLHWYQQKPGQAPRLLIYKVSNRFSGVPDRFSGSGSGTDFTLKISRVEAEDVGVYYCGQGTQVLYTFGQGTKLEIKRTVAAPSVFIFPPSDEQLKSGTASVVCLLNNFYPREAKVQWKVDNALQSGNSQESVTEQDSKDSTYSLSSTLTLSKADYEKHKVYACEVTHQGLSSPVTKSFNRGEC
heavy: QVQLVESGGGVVQPGRSLRLSCAASGFTFSNAWMHWVRQAPGKGLEWVAQIKAKSNNYATYYAESVKGRFTISRDDSKNSLYLQMNSLKTEDTAVYYCRYVHYGAYYGVDAWGQGTTVTVSSASTKGPSVFPLAPSSKSTSGGTAALGCLVKDYFPEPVTVSWNSGALTSGVHTFPAVLQSSGLYSLSSVVTVPSSSLGTQTYICNVNHKPSNTKVDKKVEPKSCDKTHTCPPCPAPEAAGGPSVFLFPPKPKDTLMISRTPEVTCVVVDVSHEDPEVKFNWYVDGVEVHNAKTKPREEQYASTYRVVSVLTVLHQDWLNGKEYKCKVSNKALPAPIEKTISKAKGQPREPQVYTLPPSRCELTKNQVSLSCAVKGFYPSDIAVEWESNGQPENNYKTTPPVLDSDGSFFLVSKLTVDKSRWQQGNVFSCSVMHEALHNHYTQKSLSLSPDYKDDDDK
chain: EPKSSDKTHTCPPCPAPELLGGPSVFLFPPKPKDTLMISRTPEVTCVVVDVSHEDPEVKFNWYVDGVEVHNAKTKPREEQYNSTYRVVSVLTVLHQDWLNGKEYKCKVSNKALPAPIEKTISKAKGQPREPQVCTLPPSRDELTKNQVSLWCLVKGFYPSDIAVEWESNGQPENNYKTTPPVLDSDGSFFLYSKLTVDKSRWQQGNVFSCSVMHEALHNRYTQKSLSLSP
B2: GLS3000 S56F one-arm antibody (antibody, human IgG1, kappa, L234A L235A, N297A, name in Kabat numbering)
light: B1 light with S61F, L100P
heavy: B1 heavy
chain: B1 chain
B3: GLS3000 R54E one-arm antibody (antibody, human IgG1, kappa, L234A L235A, N297A, name in Kabat numbering)
light: B1 light with R59E, L100P
heavy: B1 heavy
chain: B1 chain
B4: GLS3000 S56N one-arm antibody (antibody, human IgG1, kappa, L234A L235A, N297A, name in Kabat numbering)
light: B1 light with S61N, L100P
heavy: B1 heavy
chain: B1 chain
B5: GLS3000 Q93D one-arm antibody (antibody, human IgG1, kappa, L234A L235A, N297A, name in Kabat numbering)
light: B1 light with Q98D, L100P
heavy: B1 heavy
chain: B1 chain
B6: GLS3000 S56E one-arm antibody (antibody, human IgG1, kappa, L234A L235A, N297A, name in Kabat numbering)
light: B1 light with S61E, L100P
heavy: B1 heavy
chain: B1 chain
B7: GLS3000 Q90P one-arm antibody (antibody, human IgG1, kappa, L234A L235A, N297A, name in Kabat numbering)
light: B1 light with Q95P, L100P
heavy: B1 heavy
chain: B1 chain
B8: GLS3000 Q93E one-arm antibody (antibody, human IgG1, kappa, L234A L235A, N297A, name in Kabat numbering)
light: B1 light with Q98E, L100P
heavy: B1 heavy
chain: B1 chain
B9: GLS3000 Q90A one-arm antibody (antibody, human IgG1, kappa, L234A L235A, N297A, name in Kabat numbering)
light: B1 light with Q95A, L100P
heavy: B1 heavy
chain: B1 chain
B10: GLS3000 Q93R one-arm antibody (antibody, human IgG1, kappa, L234A L235A, N297A, name in Kabat numbering)
light: B1 light with Q98R, L100P
heavy: B1 heavy
chain: B1 chain
B11: GLS3000 R54Q one-arm antibody (antibody, human IgG1, kappa, L234A L235A, N297A, name in Kabat numbering)
light: B1 light with R59Q, L100P
heavy: B1 heavy
chain: B1 chain
B12: GLS3000 R54T one-arm antibody (antibody, human IgG1, kappa, L234A L235A, N297A, name in Kabat numbering)
light: B1 light with R59T, L100P
heavy: B1 heavy
chain: B1 chain
B13: GLS3000 S56K one-arm antibody (antibody, human IgG1, kappa, L234A L235A, N297A, name in Kabat numbering)
light: B1 light with S61K, L100P
heavy: B1 heavy
chain: B1 chain
B14: GLS3000 R54W one-arm antibody (antibody, human IgG1, kappa, L234A L235A, N297A, name in Kabat numbering)
light: B1 light with R59W, L100P
heavy: B1 heavy
chain: B1 chain
B15: GLS3000 Q93S one-arm antibody (antibody, human IgG1, kappa, L234A L235A, N297A, name in Kabat numbering)
light: B1 light with Q98S, L100P
heavy: B1 heavy
chain: B1 chain
B16: GLS3000 Q90E one-arm antibody (antibody, human IgG1, kappa, L234A L235A, N297A, name in Kabat numbering)
light: B1 light with Q95E, L100P
heavy: B1 heavy
chain: B1 chain
B17: GLS3000 R54P one-arm antibody (antibody, human IgG1, kappa, L234A L235A, N297A, name in Kabat numbering)
light: B1 light with R59P, L100P
heavy: B1 heavy
chain: B1 chain
B18: GLS3000 S56M one-arm antibody (antibody, human IgG1, kappa, L234A L235A, N297A, name in Kabat numbering)
light: B1 light with S61M, L100P
heavy: B1 heavy
chain: B1 chain
B19: GLS3000 Q93P one-arm antibody (antibody, human IgG1, kappa, L234A L235A, N297A, name in Kabat numbering)
light: B1 light with Q98P, L100P
heavy: B1 heavy
chain: B1 chain
B20: GLS3000 P95S one-arm antibody (antibody, human IgG1, kappa, L234A L235A, N297A, name in Kabat numbering)
light: B1 light with L100S
heavy: B1 heavy
chain: B1 chain
B21: GLS3000 S52Q one-arm antibody (antibody, human IgG1, kappa, L234A L235A, N297A, name in Kabat numbering)
light: B1 light with S57Q, L100P
heavy: B1 heavy
chain: B1 chain
B22: GLS3000 Q90S one-arm antibody (antibody, human IgG1, kappa, L234A L235A, N297A, name in Kabat numbering)
light: B1 light with Q95S, L100P
heavy: B1 heavy
chain: B1 chain
B23: GLS3000 S56G one-arm antibody (antibody, human IgG1, kappa, L234A L235A, N297A, name in Kabat numbering)
light: B1 light with S61G, L100P
heavy: B1 heavy
chain: B1 chain
B24: GLS3000 Q93A one-arm antibody (antibody, human IgG1, kappa, L234A L235A, N297A, name in Kabat numbering)
light: B1 light with Q98A, L100P
heavy: B1 heavy
chain: B1 chain
B25: GLS3000 R77S one-arm antibody (antibody, human IgG1, kappa, L234A L235A, N297A, name in Kabat numbering)
light: B1 light with R82S, L100P
heavy: B1 heavy
chain: B1 chain
B26: GLS3000 S56I one-arm antibody (antibody, human IgG1, kappa, L234A L235A, N297A, name in Kabat numbering)
light: B1 light with S61I, L100P
heavy: B1 heavy
chain: B1 chain
B27: GLS3000 R54S one-arm antibody (antibody, human IgG1, kappa, L234A L235A, N297A, name in Kabat numbering)
light: B1 light with R59S, L100P
heavy: B1 heavy
chain: B1 chain
B28: GLS3000 Q90D one-arm antibody (antibody, human IgG1, kappa, L234A L235A, N297A, name in Kabat numbering)
light: B1 light with Q95D, L100P
heavy: B1 heavy
chain: B1 chain
B29: GLS3000 R54G one-arm antibody (antibody, human IgG1, kappa, L234A L235A, N297A, name in Kabat numbering)
light: B1 light with R59G, L100P
heavy: B1 heavy
chain: B1 chain
B30: GLS3000 S56H one-arm antibody (antibody, human IgG1, kappa, L234A L235A, N297A, name in Kabat numbering)
light: B1 light with S61H, L100P
heavy: B1 heavy
chain: B1 chain
B31: GLS3000 S56L one-arm antibody (antibody, human IgG1, kappa, L234A L235A, N297A, name in Kabat numbering)
light: B1 light with S61L, L100P
heavy: B1 heavy
chain: B1 chain
B32: GLS3000 S52Y one-arm antibody (antibody, human IgG1, kappa, L234A L235A, N297A, name in Kabat numbering)
light: B1 light with S57Y, L100P
heavy: B1 heavy
chain: B1 chain
B33: GLS3000 S52P one-arm antibody (antibody, human IgG1, kappa, L234A L235A, N297A, name in Kabat numbering)
light: B1 light with S57P, L100P
heavy: B1 heavy
chain: B1 chain

What follows are binders tested against T1, CD3 epsilon homodimer protein (UniProt P07766 23-126) (assay: SPR Biacore T200, CD3e homodimer on chip, antibody analyte;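 further: CD3 epsilon homodimer amine-coupled on CM4 sensor chip, antibodies injected as analyte at 25 °C in HBS-EP+, ratio ≥0.8 taken as binding retained versus unaltered parent antibody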).
T1 construct: Construct of the homodimer is not described; also called CD3 (CD3 epsilon)
T1 sequence (P07766 23-126): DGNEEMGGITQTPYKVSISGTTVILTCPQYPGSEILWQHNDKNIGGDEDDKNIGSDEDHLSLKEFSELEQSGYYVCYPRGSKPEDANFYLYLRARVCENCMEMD

Binder | ratio of amounts bound (altered form/GLS3000)
B1 | 0.24
B2 | 1.32
B3 | 0.58
B4 | 0.92
B5 | 0.72
B6 | 0.71
B7 | 0.27
B8 | 0.75
B9 | 0.5
B10 | 1.13
B11 | 0.68
B12 | 0.65
B13 | 1.46
B14 | 0.78
B15 | 0.96
B16 | 0.86
B17 | 0.84

Binder | ratio of amounts bound (altered form/GLS3000)
B18 | 1.05
B19 | 0.25
B20 | 0.43
B21 | 1.05
B22 | 0.73
B23 | 0.92
B24 | 0.85
B25 | 0.92
B26 | 0.99
B27 | 0.79
B28 | 0.19
B29 | 0.67
B30 | 1.05
B31 | 1.02
B32 | 1.12
B33 | 0.33
